Experimental data: paper PMC9744743, “Introducing or removing heparan sulfate binding sites does not alter brain uptake of the blood–brain barrier shuttle scFv8D3” (Scientific Reports, 2022)

Target: T1, recombinant mouse TfR extracellular domain protein (Mus musculus, UniProt Q62351)
T1 construct: transferrin receptor (TfR), mouse, extracellular domain; also called transferrin receptor; source: recombinant, prepared in our lab
Assay: ELISA; indirect ELISA; half-area plates coated with 50 ng/well recombinant mouse TfR extracellular domain in PBS overnight at 4 °C, blocked with 1% BSA; serial dilutions of scFvs 2 h at RT in PBS with 0.1% BSA and 0.05% Tween-20; detected by mouse anti-Strep-Tag II and HRP goat anti-mouse
Details: both partners purified

T1 sequence (Q62351 89-763): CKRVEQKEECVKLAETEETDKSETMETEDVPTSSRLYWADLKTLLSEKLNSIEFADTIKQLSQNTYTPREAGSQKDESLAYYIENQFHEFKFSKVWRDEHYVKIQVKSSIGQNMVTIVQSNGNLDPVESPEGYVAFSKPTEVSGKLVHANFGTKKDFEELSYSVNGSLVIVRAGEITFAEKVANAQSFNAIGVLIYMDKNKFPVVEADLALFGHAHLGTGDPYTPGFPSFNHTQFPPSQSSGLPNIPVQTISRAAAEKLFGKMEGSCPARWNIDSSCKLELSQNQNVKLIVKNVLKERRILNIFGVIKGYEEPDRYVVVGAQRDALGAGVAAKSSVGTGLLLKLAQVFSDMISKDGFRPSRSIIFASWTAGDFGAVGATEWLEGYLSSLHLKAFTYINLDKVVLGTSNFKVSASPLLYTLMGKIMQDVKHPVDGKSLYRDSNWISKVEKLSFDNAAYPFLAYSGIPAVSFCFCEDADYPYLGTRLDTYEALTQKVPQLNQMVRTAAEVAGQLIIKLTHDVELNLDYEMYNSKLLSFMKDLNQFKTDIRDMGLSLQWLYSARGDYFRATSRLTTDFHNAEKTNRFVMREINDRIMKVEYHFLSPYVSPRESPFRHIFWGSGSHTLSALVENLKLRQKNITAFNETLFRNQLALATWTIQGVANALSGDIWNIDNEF

B1: HS(−)scFv8D3 mutant (K42Q_K43Q and K243Q_R244Q) (scFv, V domains shown)
VH: EVQLVESGGGLVQPGNSLTLSCVASGFTFSNYGMHWIRQAPQQGLEWIAMIYYDSSKMNYADTVKGRFTISRDNSKNTLYLEMNSLRSEDTAMYYCAVPTSHYVVDVWGQGVSVTVSS
VL: DIQMTQSPASLSASLEEIVTITCQASQDIGNWLAWYQQKPGKSPQLLIYGATSLADGVPSRFSGSRSGTQFSLKISRVQVEDIGIYYCLQAYNTPWTFGGGTKLELQ
notes: as the heavy chain variable domain of m1 with the stated changes; numbers count on: the whole scFv8D3 chain; linker, printed as SGSTS (G4S)3; as the light chain variable domain of m1 with the stated changes; Same tag, linkers and signal peptide as m1; also called HS minus mutant; source: Expi293 cells, transfected, purified from supernatant (Strep-Tactin XT)
binding result: binds

B2: HS(+)scFv8D3 mutant (S75K and P176K) (scFv, V domains shown)
VH: EVQLVESGGGLVQPGNSLTLSCVASGFTFSNYGMHWIRQAPKKGLEWIAMIYYDSSKMNYADTVKGRFTISRDNKKNTLYLEMNSLRSEDTAMYYCAVPTSHYVVDVWGQGVSVTVSS
VL: DIQMTQSPASLSASLEEIVTITCQASQDIGNWLAWYQQKKGKSPQLLIYGATSLADGVPSRFSGSRSGTQFSLKISRVQVEDIGIYYCLQAYNTPWTFGGGTKLELK
notes: as the heavy chain variable domain of m1 with the stated change; numbers count on: the whole scFv8D3 chain; linker, printed as SGSTS (G4S)3; as the light chain variable domain of m1 with the stated change; Same tag, linkers and signal peptide as m1; That S75 lies in the first domain and P176 in the second is worked out from the residue numbers; also called HS plus mutant; source: Expi293 cells, …
binding result: binds
